Experiment: soluble on expression in E. coli; label from the status in PepcDB or PDB records

Soluble on expression in E. coli, not soluble:
MGSDKIHHHHHHMSSQTTALNSGVHAKKADIFCQDEARVDWHSKALWVLREKRDRAAASLPEWEQLRQLGSEMKLHTLTHLGEYLETFEKNCQANGIVVHWAKDGAEHNQIVHNILAKHQVKKLVKSKSMLTEECHLNPYLESKGIEVIDTDLGERIIQLAKQPPSHIVVPAIHLKKEEVGDLFHDKLGTEAGASDPLYLTRAARAHLREQFLSADAAMTGVNMAIADKGAVVVCTNEGNADMGANLPKLQLHSMGIDKIVPDLDSAAILLRTLARNATGQPITTYSSFYRGPQDGGEMHVIIVDNGRTDMLQDKILAESLKCIRCGGCLNTCPVYRRSGGYSYNYTIPGPIGIAVGAQADDTHSIPWACTLCGSCSYVCPTKVPLDKIIHHHRRLKAKAGKLPYGKRNYMPLVGNFMASETMLNCSMSVARTALRILPGSLLKPFSGAWGKYRELPVAPKSSFEAWFNKNRGQ, MGSDKIHHHHHHMSSSDNILERLLFTIHKRLVSIPIAPNLRKNVAPIVNDWPSRPEKNTRPSTTVHLPAVDYLEQALKIGETSGDREICPMIRLLAPELSWNFDYAPHPAFPYLDEKVAFTQFVGPNDLWVSSHLAIGLTLIAPETHYPAHCHPATEIYLPLAGTGSWSMGNYYYFPRKPGELIFHPSGITHATQAQEEPMLALYIWHGDICSPSEWLPDECE, MGSDKIHHHHHHMSTARLVLLGGFLGAGKTTTMIKSALKLEKEGYRVAIVTNDQGKELIDTELARANGLESKEVTGGCFCCQFDDLYNNLNTLMKEKQPDVIIAEAVGSCTDLAATVIQPLKQYYADKFKTAPLTIVVEPARLLHELNLDENTKPFFSQSVSYIFEKQLAEADIIALNKVDRYSEEEIAKLKAYLQQRYPQTIIQTFSAERGDNLEALTHTWLTTDLGGDKVLDIDYELYAEGEAQLAWMNILGDIKAEQDINPREWAEKLLDNLNKHFIREKMAIAHLKVHVGFEGGYVKASMVQTGDAPTFTVENVKEGKEFRIVLNIRIEATPAILNLVVADSIGAINKELGSNWSETYNECFSPLPPKPVHRLYETV, MGSDKIHHHHHHMSTELRRVTYGNHGVARLTPAPDKPGTYMGMPKFSKAVKGELNLSVQRKNMRNATMTIRNKRAMRVSESPDWQDLRDAAESIKNRVGRHLDHYLVEAEKNLTANGVHVHWARDGEEANRIVAQIAKDKGVDEVVKIKSITSQETDLNEYLEEQGIAAWETDLAELIVQLGHDRPSHIVVPAIHRNRAEVREIFLHEMKNYGRPAPEDISENPPELTNAARLHLREKFLRAEMAVSGGNFVLADTGSLVIVESEGNGRMCLTLPDTLVSIVGIEKVLPSFDDLEVFLKLLPRSATGERMNPYNSVWSGVTDGDGPQEQHVIFLDNGRTDVLADTLGREVLRCIRCASCINICPVYERAGGHAYGSVYPGPIGAVLNPQLRGVEHPVDRGLPYACSLCGACNEVCPVKIPFTDILLKLRNKVVKSEKADRIPQDYEVAGEMGLMKTASWAFSDHKHFEAIQVGSRGVGRVLRGKKMGPVPVPVAERWLKYRDVDAPPADTFRTWWKKNREAQR, MGSDKIHHHHHHMSTNHGANLYSLSSKYGFSKEEFMDFSSNINPFGTSSLAKQYIVNNIDMVSMYPDPDYIDLKTSISNYCKCSIDNIVLGSGATELISSFIHTINPKQALLLSPAYSEYEKELSKINCSIEKYFAKEEDNFHINLENLIKTINAKDYDLVVICNPSNPTGFAFTKVEVREILKNTDSFLMIDETYVEFTDTDTYSCTQLVDDYSNLFVIRGTSKFFSTPGIRLGYGLISNTNVKNEINKNLDLWNINIIASKMGEIMFSDLDFISNTISLMNTERDYLLKELKNIKSLDIYNTKGNFILCKIKTKELTAKSLREQLLPQKIIIRDCCSFKGLDEYFFRVCILKPNENKLLISSLKSIFK, MGSDKIHHHHHHMSTRMVTLHGRIVLRASIELLTGLHIGGAAGGLEIGGLDKPVIRNPITNQPYIPGSSLKGKLRSLMEKVYGAPQTFRINEGVFIHVPTNPEEYQRYYQIAGVFGTLPNHKQLTIDVPTRLIVRDVPLTRESEQELRRLRTDLPYTEIKWEAAIDRVTSAAAPRQIERVPAGAVFGPAEVVYSLYVGNGEQLSDVIRLFGSVYEAFTYLEDDYLGGMGSRGNGQVRLRDITVLARRLESGRYGELTTIREAKELRELDRNGLLEELQRFFNPA
